Consider one molecule from publication PMC12103653 (2025).

By Kd is commonly meant a measure of binding affinity in units of concentration.

The target of this experiment is Leukemia inhibitory factor (LIF), un-glycosylated recombinant protein (human, UniProt P15018 23-202). The experiment in a line: SPR. For orientation: SPR reads the build-up and loss of mass on a sensor chip optically.
Sequence of Leukemia inhibitory factor (LIF), un-glycosylated recombinant protein (P15018 23-202): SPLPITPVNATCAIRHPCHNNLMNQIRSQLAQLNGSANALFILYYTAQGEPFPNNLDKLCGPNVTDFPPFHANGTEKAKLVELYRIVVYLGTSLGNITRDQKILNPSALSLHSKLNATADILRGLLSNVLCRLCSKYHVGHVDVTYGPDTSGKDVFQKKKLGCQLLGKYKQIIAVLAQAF

B1: LIF receptor LIFR (receptor)
chain: QKKGAPHDLKCVTNNLQVWNCSWKAPSGTGRGTDYEVCIENRSRSCYQLEKTSIKIPALSHGDYEITINSLHDFGSSTSKFTLNEQNVSLIPDTPEILNLSADFSTSTLYLKWNDRGSVFPHRSNVIWEIKVLRKESMELVKLVTHNTTLNGKDTLHHWSWASDMPLECAIHFVEIRCYIDNLHFSGLEEWSDWSPVKNISWIPDSQTKVFPQDKVILVGSDITFCCVSQEKVLSALIGHTNCPLIHLDGENVAIKIRNISVSASSGTNVVFTTEDNIFGTVIFAGYPPDTPQQLNCETHDLKEIICSWNPGRVTALVGPRATSYTLVESFSGKYVRLKRAEAPTNESYQLLFQMLPNQEIYNFTLNAHNPLGRSQSTILVNITEKVYPHTPTSFKVKDINSTAVKLSWHLPGNFAKINFLCEIEIKKSNSVQEQRNVTIKGVENSSYLVALDKLNPYTLYTFRIRCSTETFWKWSKWSNKKQHLTTEASPSKGPDTWREWSSDGKNLIIYWKPLPINEANGKILSYNVSCSSDEETQSLSEIPDPQHKAEIRLDKNDYIISVVAKNSVGSSPPSKIASMEIPNDDLKIEQVVGMGKGILLTWHYDPNMTCDYVIKWCNSSRSEPCLMDWRKVPSNSTETVIESDEFRPGIRYNFFLYGCRNQGYQLLRSMIGYIEELAPIVAPNFTVEDTSADSILVKWEDIPVEELRGFLRGYLFYFGKGERDTSKMRVLESGRSDIKVKNITDISQKTLRIADLQGKTSYHLVLRAYTDGGVGPEKSMYVVTKENS
On to B1, for which the Kd came to 6.31 µM.
